From paper PMC5115869

Biological target: GCN4pLI-HCN2(CNBD) tetramer (human)
Assay: SEC; GCN4pLI-HCN2(CNBD) in solution; column and buffer not told for this run

GCN4pLI-HCN2(CNBD) tetramer
stoichiometry N: 4
